We go through four substances from article PMC2731525.

As a reminder, the Kd is the concentration at which binding is half-saturated. Low values mean tighter binding, high ones weaker binding.

The target of the test is biglycan (UniProt P21810). The test can be described thus: solid-phase binding assay.
Chain of UniProt P21810 (P21810 38-368): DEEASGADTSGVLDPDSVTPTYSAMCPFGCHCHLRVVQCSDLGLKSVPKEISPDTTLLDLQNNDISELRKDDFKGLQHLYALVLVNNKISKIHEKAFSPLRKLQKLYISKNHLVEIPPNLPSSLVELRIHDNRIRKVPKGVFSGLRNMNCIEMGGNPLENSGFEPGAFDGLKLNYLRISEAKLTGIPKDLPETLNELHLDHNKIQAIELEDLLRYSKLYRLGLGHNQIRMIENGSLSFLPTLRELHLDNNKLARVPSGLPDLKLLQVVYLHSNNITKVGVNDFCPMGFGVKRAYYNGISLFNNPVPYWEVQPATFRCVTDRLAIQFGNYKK

As for “LDL with low apoCIII from patients with type 2 diabetes (from UniProt P02656 21-99) (complex)”, the Kd turned out to be 12.2 nM.

With “apoCIII-free LDL isolated from diabetic LDL with low apoCIII/apoB molar ratio (natural protein)”, the Kd worked out at 12.8 nM.

“apoCIII-free LDL isolated from diabetic LDL with high apoCIII/apoB molar ratio (natural protein)” displayed a Kd of 9.8 nM.

Turning to “LDL with high apoCIII from patients with type 2 diabetes (from UniProt P02656 21-99) (complex)”, the dissociation constant (Kd) came out at 8.6 nM.
